Measured values: PMC12956587

Molecular target: WIN332 SOSIP Env trimer (HIV-1 strain BG505)
Assay: SEC

Work on WIN332 SOSIP Env trimer (complex) yielded a stoichiometry N of 3.
